# T1: recombinantly expressed purified soluble WNV E protein (strain 382-99), truncated form with Myc and His tags (West Nile virus strain 382-99, UniProt Q9Q6P4 291-696)
# T1 construct: also called recombinant WNV-E protein; truncated E protein; not shown: Myc tag and His tag from pAdapt.myc.his
# T1 sequence: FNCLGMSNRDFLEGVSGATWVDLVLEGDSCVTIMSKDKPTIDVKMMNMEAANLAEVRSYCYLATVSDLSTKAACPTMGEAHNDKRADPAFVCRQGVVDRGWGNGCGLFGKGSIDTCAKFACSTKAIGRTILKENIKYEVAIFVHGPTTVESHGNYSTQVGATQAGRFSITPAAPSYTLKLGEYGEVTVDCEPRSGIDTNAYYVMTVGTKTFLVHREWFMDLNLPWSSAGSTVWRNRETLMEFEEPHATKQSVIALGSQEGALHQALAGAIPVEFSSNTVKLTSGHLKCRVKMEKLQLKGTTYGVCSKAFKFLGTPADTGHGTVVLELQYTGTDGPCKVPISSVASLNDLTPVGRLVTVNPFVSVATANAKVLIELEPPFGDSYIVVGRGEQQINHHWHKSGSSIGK
# B1: SC04-283 (scFv)
# scFv: EVQLVQSGAEVKKSGESLKISCKGSGYTFNTYWIGWVRQMPGKGLEWMGIIYPGDSDTIYSPSFQGQVTISADKSISTAYLQWSSLKASDSAMYYCARLTFRRGYSGSDSFLPPGDFDYWGQGTLVTVSSGTGGSGGTGSGTGGSTDIQMTQSPSTLSASVGDRVTITCRASQSISSWLAWYQQKPGKAPNLLIYAASSLQSGVPSRFSGSGSGTDFTLTISSLQPDDSATYYCQQYNTYPLTFGGGTKVEIKR
# B2: SC04-311 (scFv)
# scFv: EVQLVQSGGGVVQPGRSLRLSCVASGFTFSKDAMHWVRQAPGKGLEWVAVISYDGSDKHYADSVKGRVTISRDNSRKTLYLRMDSLRAEDTALYYCARGYNSGHYFDYWGQGTLITVSSGTGGSGGTGSGTGGSTQSVLTQPPSVSAAPGQKVTISCSGTSSNIGDNYVSWYQHLPGTAPKLLIYDNNKRPSGIPDRFSGSKSGTSATLGVTGLQTGDEADYYCGTWDSSLTAVVFGGGTKLTVLG
# B3: SC04-299 (scFv)
# scFv: EVQLVETGGGVVQPGRSLRLSCAASGFTFSGYAMHWVRQAPGKGLDWVAVISYDGSEKYSADSVKGRFTISRDNSKNTLYLQMNSLRAEDTAVYYCAKESGGPIWYKYYGVDVWGQGTTVTVSSGTGGSGGTGSGTGGSTSYVLTQPPSLSAAPRQRVTISCSGSSSNIGNYGVNWYQQLPGKAPKLLIYYDDLLPSGVSDRFSGSKSGTSASLAISGLQSEDEGDYYCAAWDDTLSAWVFGGGTKLTVLG
# B4: SC04-353 (scFv)
# scFv: EVQLVQSGGGVVQPGRSLRLSCAASGFTFSNYAMHWVRQAPGKGLEWVAVISYDGGNKYYADSVKGRFTMSRDNSKNTLYLQMNSLRAEDTAVYYCARDFWSGYSMVDSYYYYMDVWGKGTTVTVSSGTGGSGGTGSGTGGSTETTLTQSPGTLSLSPGERATLSCRASQSVSNTFLAWYQQKPGQAPRLLIYGASSRATGIPDRFSGSGSGTDFTLTISRLEPEDFAAYYCQQYGSSLTFGPGTKVDIKR
# B5: SC04-361 (scFv)
# scFv: EVQLVQSGAEVKKPGESLKISCKASGFSFSTYWIGWVRQMPGKGLEWMGIIYPADSDTRYSPSFQGQVTISADKSISTAYLQWSSLKASDTAMYYCARLRGPYYDFWNGYRETHDAFNVWGQGTMVTVSSGTGGSGGTGSGTGGSTDVVMTQSPDSLAVSLGERATINCKSSQNILDNSDNKNFLAWYQQKPGQPPKLLIYWASARESGVPDRFSGSGSGTDFTLTISSLQAEDVALYYCQQYYNTPITFGQGTRLEIKR
# B6: SC04-289 (scFv)
# scFv: QMQLVQSGAEVKKPGESLRISCKGSGYSFTSNWITWVRQMPGKGLEWMGRIDPSDSYTNYSPSFQGHVTISADKSISTAYLQWSSLKASDTAMYYCARDVVGVGASDYYYYMDVWGKGTTVTVSSGTGGSGGTGSGTGGSTEIVLTQSPGTLSLSPGETATLSCRTSQSVSSSYLGWYQQKPGQAPRLLIYGASIRATGIPARFSGSGSGTEFTLTIDSLQSEDFAVYYCQQYNNWPPITFGQGTRLEIKR
# B7: SC04-271 (scFv)
# scFv: EVQLVETGAEVKKPGESLRISCKGSGYTFNNYWIGWVRQMPGKGLEWMGIIYPGDSDTRYSPSVQGHVTISADKSINTAYLQWSSLKASDTAVYYCARRPGYDYGFYYFDYWGQGTLVTVSSGTGGSGGTGSGTGGSTQSALTQPRSVSGSPGQSVTISCTGTSSDVGGYNYVSWYQHHPGKAPKLMIYDVSNRPLGVSNRFSGSKSGNTASLTISGLQAEDEADYYCSSYTSSSTYVFGTGTHLTVLS
# Experiments:
# [1] = target: T1, recombinantly expressed purified …; assay: phage antibody ELISA on coated recombinant soluble WNV E protein
# [2] = target: T2, West Nile virus strain USA99b (strain 385-99), whole virus (West Nile virus strain 385-99 (USA99b)); assay: phage antibody ELISA on coated whole inactivated WNV
# T2 construct: also called WN virus; WNV
# [3] = target: T1, recombinantly expressed purified …; assay: phage antibody ELISA on coated recombinant soluble WNV E protein; remark: listed apart in the source
Binder,OD 492nm [1] [OD 492nm],OD 492nm [2] [OD 492nm],binding result [3]
B1,0.074,1.21,
B2,,1.04,
B3,0.072,1.07,
B4,0.099,,no binding
B5,0.076,,no binding
B6,,0.759,
B7,0.608,0.984,

# Source: EP1828247B1 (Crucell Holland B.V., dated 2011)
